Source: PMC9482650, “Quantitative fragmentomics allow affinity mapping of interactomes” (Nature Communications, 2022)

Assays:
Assay in all cases: holdup assay
Parameters in all cases: key: below the threshold = too weak to quantify, mostly under pKd 3.1 to 4
ARHGAP21, Q5T5U3 = biological target: T1, ARHGAP21, Q5T5U3
T1 sequence (Q5T5U3 45-169, limits assumed, looked up): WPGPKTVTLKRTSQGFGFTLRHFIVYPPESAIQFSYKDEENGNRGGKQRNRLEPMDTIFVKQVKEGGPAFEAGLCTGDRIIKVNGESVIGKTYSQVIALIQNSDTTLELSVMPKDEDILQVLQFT

DLG5_2, Q8TDM6 = biological target: DLG5_2, Q8TDM6
DLG5_2, Q8TDM6, sequence (Q8TDM6 714-800): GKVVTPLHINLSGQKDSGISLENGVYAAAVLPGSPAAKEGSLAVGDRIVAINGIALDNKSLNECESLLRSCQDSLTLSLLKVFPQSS

DVL1, O14640 = biological target: T2, DVL1, O14640
T2 sequence (O14640 246-333, limits assumed, looked up): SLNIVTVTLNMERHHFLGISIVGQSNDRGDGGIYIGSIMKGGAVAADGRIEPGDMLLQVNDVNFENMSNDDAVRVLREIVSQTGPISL

GOPC, Q9HD26 = biological target: GOPC, Q9HD26
GRIP1_1, Q9Y3R0 = biological target: T3, GRIP1_1, Q9Y3R0
T3 sequence (Q9Y3R0 48-146, limits assumed, looked up): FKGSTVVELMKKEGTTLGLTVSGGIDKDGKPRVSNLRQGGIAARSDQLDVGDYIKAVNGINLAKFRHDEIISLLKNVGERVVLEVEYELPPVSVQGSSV

IL16_2, Q14005 = biological target: IL16_2, Q14005
IL16_2, Q14005, sequence (Q14005 350-450): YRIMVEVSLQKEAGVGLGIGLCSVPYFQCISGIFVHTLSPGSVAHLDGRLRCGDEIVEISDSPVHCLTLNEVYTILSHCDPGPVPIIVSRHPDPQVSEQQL

MAGI1_4, Q96QZ7 = biological target: MAGI1_4, Q96QZ7
MAGI1_4, Q96QZ7, sequence (Q96QZ7 other isoform, or with tags, fused parts or gaps): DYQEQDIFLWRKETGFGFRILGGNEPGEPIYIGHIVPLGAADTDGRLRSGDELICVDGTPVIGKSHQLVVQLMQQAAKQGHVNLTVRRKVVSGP

MAGI3_5, Q5TCQ9 = biological target: MAGI3_5, Q5TCQ9
MAGI3_5, Q5TCQ9, sequence (Q5TCQ9 847-941): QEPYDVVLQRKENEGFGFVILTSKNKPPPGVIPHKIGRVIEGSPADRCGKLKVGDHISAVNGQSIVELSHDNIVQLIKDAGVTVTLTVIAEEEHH

MAGIX, Q9H6Y5 = biological target: MAGIX, Q9H6Y5
MAGIX, Q9H6Y5, sequence (Q9H6Y5 118-211): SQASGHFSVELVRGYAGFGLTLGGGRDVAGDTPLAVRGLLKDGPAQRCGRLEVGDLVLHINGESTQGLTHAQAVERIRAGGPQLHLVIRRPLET

MLLT4, P55196 = biological target: T4, MLLT4, P55196
T4 sequence (P55196 1002-1103, limits assumed, looked up): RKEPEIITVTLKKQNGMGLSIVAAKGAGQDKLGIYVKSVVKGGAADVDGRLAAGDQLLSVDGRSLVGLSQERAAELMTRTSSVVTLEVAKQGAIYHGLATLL

MPDZ_13, O75970 = biological target: T5, MPDZ_13, O75970
T5 sequence (O75970 1982-2070, limits assumed, looked up): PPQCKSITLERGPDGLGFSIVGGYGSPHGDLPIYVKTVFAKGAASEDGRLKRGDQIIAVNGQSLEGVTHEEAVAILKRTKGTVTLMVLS

MPDZ_6, O75970 = biological target: T6, MPDZ_6, O75970
T6 sequence (O75970 1003-1099, limits assumed, looked up): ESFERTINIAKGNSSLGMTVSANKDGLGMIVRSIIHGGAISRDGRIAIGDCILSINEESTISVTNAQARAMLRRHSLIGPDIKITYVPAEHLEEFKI

NHERF1_1, O14745 = biological target: T7, NHERF1_1, O14745
T7 sequence (O14745 9-104, limits assumed, looked up): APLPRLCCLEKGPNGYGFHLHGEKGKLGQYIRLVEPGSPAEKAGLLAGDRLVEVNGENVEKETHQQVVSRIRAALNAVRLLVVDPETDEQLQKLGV

PARD6B, Q9BYG5 = biological target: T8, PARD6B, Q9BYG5
T8 sequence (Q9BYG5 152-260, limits assumed, looked up): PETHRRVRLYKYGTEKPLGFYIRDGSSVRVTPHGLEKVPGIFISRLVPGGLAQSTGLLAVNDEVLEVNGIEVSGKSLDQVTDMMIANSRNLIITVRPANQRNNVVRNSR

PDZD4, Q76G19 = biological target: T9, PDZD4, Q76G19
T9 sequence (Q76G19 125-224, limits assumed, looked up): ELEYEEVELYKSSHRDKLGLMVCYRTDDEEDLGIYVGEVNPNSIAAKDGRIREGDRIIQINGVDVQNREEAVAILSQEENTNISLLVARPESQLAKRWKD

PDZD8, Q8NEN9 = biological target: T10, PDZD8, Q8NEN9
T10 sequence (Q8NEN9 361-459, limits assumed, looked up): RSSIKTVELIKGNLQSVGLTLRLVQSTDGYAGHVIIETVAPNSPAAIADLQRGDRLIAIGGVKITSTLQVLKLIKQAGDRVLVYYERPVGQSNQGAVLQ

PTPN13_5, Q12923 = biological target: T11, PTPN13_5, Q12923
T11 sequence (Q12923 1877-1975, limits assumed, looked up): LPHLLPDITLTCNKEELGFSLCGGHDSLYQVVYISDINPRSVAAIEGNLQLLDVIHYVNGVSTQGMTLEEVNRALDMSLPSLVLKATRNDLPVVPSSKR

PTPN4, P29074 = biological target: T12, PTPN4, P29074
T12 sequence (P29074 512-599, limits assumed, looked up): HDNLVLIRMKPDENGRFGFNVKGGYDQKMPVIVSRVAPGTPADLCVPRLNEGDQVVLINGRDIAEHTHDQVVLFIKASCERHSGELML

SDCBP_1, O00560 = biological target: SDCBP_1, O00560
SDCBP_1, O00560, sequence (O00560 111-198): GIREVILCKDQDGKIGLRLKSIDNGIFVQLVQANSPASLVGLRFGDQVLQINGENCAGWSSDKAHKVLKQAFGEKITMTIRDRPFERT

SHROOM4, Q9ULL8 = biological target: T13, SHROOM4, Q9ULL8
T13 sequence (Q9ULL8 5-102, limits assumed, looked up): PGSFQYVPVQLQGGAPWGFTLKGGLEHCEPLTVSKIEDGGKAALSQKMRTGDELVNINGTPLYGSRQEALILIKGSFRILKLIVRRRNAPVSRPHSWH

TJP3_1, O95049 = biological target: T14, TJP3_1, O95049
T14 sequence (O95049 6-103, limits assumed, looked up): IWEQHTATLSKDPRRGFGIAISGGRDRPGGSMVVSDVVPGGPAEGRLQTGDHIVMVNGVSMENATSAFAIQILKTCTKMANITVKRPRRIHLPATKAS

USH1C_2, Q9Y6N9 = biological target: T15, USH1C_2, Q9Y6N9
T15 sequence (Q9Y6N9 206-303, limits assumed, looked up): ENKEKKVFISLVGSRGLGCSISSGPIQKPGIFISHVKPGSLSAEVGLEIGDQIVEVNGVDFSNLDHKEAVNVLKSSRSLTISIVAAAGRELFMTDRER

[1] = plain residues with an end cap or a label only (N-terminal biotin on a linker: ttds)
[2] = plain residues with an end cap or a label only (N-terminal biotin on a linker: none)

HRTCYLVTQL [ASIC3, Q9UHC3]
pKd (ARHGAP21, Q5T5U3; [1]): 3.47
pKd (DLG5_2, Q8TDM6; [1]): below the threshold
pKd (DVL1, O14640; [1]): below the threshold
pKd (GOPC, Q9HD26; [1]): 4.79
pKd (GRIP1_1, Q9Y3R0; [1]): 4.31
pKd (IL16_2, Q14005; [1]): below the threshold
pKd (MAGI1_4, Q96QZ7; [1]): below the threshold
pKd (MAGI3_5, Q5TCQ9; [1]): 4.64
pKd (MAGIX, Q9H6Y5; [1]): below the threshold
pKd (MLLT4, P55196; [1]): below the threshold
pKd (MPDZ_13, O75970; [1]): below the threshold
pKd (MPDZ_6, O75970; [1]): below the threshold
pKd (NHERF1_1, O14745; [1]): 5.23
pKd (PARD6B, Q9BYG5; [1]): below the threshold
pKd (PDZD4, Q76G19; [1]): below the threshold
pKd (PDZD8, Q8NEN9; [1]): below the threshold
pKd (PTPN13_5, Q12923; [1]): below the threshold
pKd (PTPN4, P29074; [1]): below the threshold
pKd (SDCBP_1, O00560; [1]): below the threshold
pKd (SHROOM4, Q9ULL8; [1]): below the threshold
pKd (TJP3_1, O95049; [1]): below the threshold
pKd (USH1C_2, Q9Y6N9; [1]): below the threshold

DPLTPSRSQL [DGKK, Q5KSL6]
pKd (ARHGAP21, Q5T5U3; [1]): below the threshold
pKd (DLG5_2, Q8TDM6; [1]): below the threshold
pKd (DVL1, O14640; [1]): below the threshold
pKd (GOPC, Q9HD26; [1]): below the threshold
pKd (GRIP1_1, Q9Y3R0; [1]): below the threshold
pKd (IL16_2, Q14005; [1]): below the threshold
pKd (MAGI1_4, Q96QZ7; [1]): below the threshold
pKd (MAGI3_5, Q5TCQ9; [1]): below the threshold
pKd (MAGIX, Q9H6Y5; [1]): below the threshold
pKd (MLLT4, P55196; [1]): below the threshold
pKd (MPDZ_13, O75970; [1]): below the threshold
pKd (MPDZ_6, O75970; [1]): below the threshold
pKd (NHERF1_1, O14745; [1]): below the threshold
pKd (PARD6B, Q9BYG5; [1]): below the threshold
pKd (PDZD4, Q76G19; [1]): below the threshold
pKd (PDZD8, Q8NEN9; [1]): below the threshold
pKd (PTPN13_5, Q12923; [1]): below the threshold
pKd (PTPN4, P29074; [1]): below the threshold
pKd (SDCBP_1, O00560; [1]): below the threshold
pKd (SHROOM4, Q9ULL8; [1]): below the threshold
pKd (TJP3_1, O95049; [1]): below the threshold
pKd (USH1C_2, Q9Y6N9; [1]): below the threshold

DSKPPLPPDEWV [MERS-E, K9N5R3]
pKd (ARHGAP21, Q5T5U3; [2]): 3.76
pKd (DLG5_2, Q8TDM6; [2]): 4
pKd (DVL1, O14640; [2]): below the threshold
pKd (GOPC, Q9HD26; [2]): 3.92
pKd (GRIP1_1, Q9Y3R0; [2]): below the threshold
pKd (IL16_2, Q14005; [2]): below the threshold
pKd (MAGI1_4, Q96QZ7; [2]): below the threshold
pKd (MAGI3_5, Q5TCQ9; [2]): below the threshold
pKd (MAGIX, Q9H6Y5; [2]): below the threshold
pKd (MLLT4, P55196; [2]): below the threshold
pKd (MPDZ_13, O75970; [2]): below the threshold
pKd (MPDZ_6, O75970; [2]): below the threshold
pKd (NHERF1_1, O14745; [2]): below the threshold
pKd (PARD6B, Q9BYG5; [2]): below the threshold
pKd (PDZD4, Q76G19; [2]): below the threshold
pKd (PDZD8, Q8NEN9; [2]): below the threshold
pKd (PTPN13_5, Q12923; [2]): below the threshold
pKd (PTPN4, P29074; [2]): below the threshold
pKd (SDCBP_1, O00560; [2]): 4.12
pKd (SHROOM4, Q9ULL8; [2]): below the threshold
pKd (TJP3_1, O95049; [2]): 4.19
pKd (USH1C_2, Q9Y6N9; [2]): below the threshold

RTRQRNETQV [HPV51-E6, P26554]
pKd (ARHGAP21, Q5T5U3; [1]): below the threshold
pKd (DLG5_2, Q8TDM6; [1]): 4.63
pKd (DVL1, O14640; [1]): 4.86
pKd (GOPC, Q9HD26; [1]): 3.72
pKd (GRIP1_1, Q9Y3R0; [1]): below the threshold
pKd (IL16_2, Q14005; [1]): below the threshold
pKd (MAGI1_4, Q96QZ7; [1]): below the threshold
pKd (MAGI3_5, Q5TCQ9; [1]): below the threshold
pKd (MAGIX, Q9H6Y5; [1]): below the threshold
pKd (MLLT4, P55196; [1]): below the threshold
pKd (MPDZ_13, O75970; [1]): below the threshold
pKd (MPDZ_6, O75970; [1]): below the threshold
pKd (NHERF1_1, O14745; [1]): below the threshold
pKd (PARD6B, Q9BYG5; [1]): below the threshold
pKd (PDZD4, Q76G19; [1]): below the threshold
pKd (PDZD8, Q8NEN9; [1]): below the threshold
pKd (PTPN13_5, Q12923; [1]): below the threshold
pKd (PTPN4, P29074; [1]): below the threshold
pKd (SDCBP_1, O00560; [1]): below the threshold
pKd (SHROOM4, Q9ULL8; [1]): below the threshold
pKd (TJP3_1, O95049; [1]): below the threshold
pKd (USH1C_2, Q9Y6N9; [1]): below the threshold
